Experimental data published in patent EP4631959A2, “NOVEL MINIGASTRIN-DERIVED CHOLECYSTOKININ 2 RECEPTOR BINDING MOLECULES FOR IMAGING AND TARGETED RADIOTHERAPY” (priority 2022, dated 2024).
Read-outs that look alike come from different tables or passages of the source. Starred links: 1 amine or outer side, 2 acyl side, 3 side chain; linkers in the order of their positions; H or OH if unused. Non-standard residues stand in square brackets, D forms with d. Residues, ends and D or L forms follow the SMILES beside them. *: point of attachment. Benzoyl(4-SiFtBu2) = CC(C)(C)[Si](F)(c1ccc(C(=O)*)cc1)C(C)(C)C; DOTA = O=C(O)CN1CCN(CC(=O)O)CCN(CC(=O)*)CCN(CC(=O)O)CC1; d(γGlu) = O=C(O)[C@@H](CCC(=O)[*:2])N[*:1]; 1Nal = N[C@@H](Cc1cccc2ccccc12)C(=O)O; Hyp = O=C(O)[C@@H]1C[C@@H](O)CN1; NMeNle = CCCC[C@H](NC)C(=O)O; PEG4 = NCCOCCOCCOCCOCCC(=O)O; dDap = NC[C@@H](N)C(=O)O

Columns and labels:
[1] = In vivo stability studies in murine serum and urine; design: species or system CB17-SCID mice; details: 30 min p.i.
Method: Stability studies were performed via injection of the ^177Lu-labeled peptide (approx. 35 MBq, 1 nmol) into the tail vein (n = 3) of anesthetized (2% isoflurane) CB17-SCID mice. At 30 min p.i. the mice were euthanized and a urine as well as a blood sample were taken. The urine sample was analyzed without further treatment. The blood sample was centrifuged at 5,000 rpm for 2 min. Afterwards, the serum was collected and ice-cold MeCN (1:1, v/v) as well as EtOH (1:2, v/v) were added. The sample was centrifuged at 5,000 rpm for 2 min once more and the supernatant was analyzed via RP-HPLC (10→30% in 5 min, 30→60% in 15 min, MeCN/H2O + 0.1% TFA).

CCK-2R [2] = biological target: T1, CCK-2R (Rattus norvegicus, UniProt P30553); experiment: Determination of IC50: CCK-2R affinity on AR4-2J cells, competition with [^177Lu]Lu-DOTA-PP-F11N; assay type: binding; details: AR4-2J cells
T1 construct: The CCK-2R expressing rat pancreatic tumor cells AR4-2J; host or cells: AR4-2J rat pancreatic tumor cells
T1 sequence (P30553 1-452): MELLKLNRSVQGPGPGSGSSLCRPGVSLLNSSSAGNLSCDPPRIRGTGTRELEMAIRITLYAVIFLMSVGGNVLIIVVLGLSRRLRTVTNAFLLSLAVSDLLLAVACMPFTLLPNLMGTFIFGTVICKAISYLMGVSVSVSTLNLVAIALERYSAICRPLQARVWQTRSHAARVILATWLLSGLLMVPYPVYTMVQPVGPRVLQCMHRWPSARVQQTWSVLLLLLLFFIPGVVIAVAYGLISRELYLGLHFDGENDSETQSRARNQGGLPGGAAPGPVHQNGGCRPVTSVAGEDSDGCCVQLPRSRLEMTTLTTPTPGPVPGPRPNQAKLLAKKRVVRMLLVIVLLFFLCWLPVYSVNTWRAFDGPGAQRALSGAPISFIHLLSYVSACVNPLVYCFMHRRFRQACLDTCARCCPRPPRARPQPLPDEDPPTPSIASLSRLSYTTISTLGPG
Procedure, shortened: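 Competitive displacement of 0.3 pmol/well [177Lu]Lu-DOTA-PP-F11N by compounds (10^-10 to 10^-4 M) on AR4-2J cells in BSA-supplemented medium, 3 h at 37 °C. Free label was collected from medium plus PBS rinse, and cell-bound label was recovered with 1 M NaOH, both measured by γ-counter. Each IC50 was determined twice, in triplicate.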

[3] = n-Octanol-PBS distribution coefficient (logD7.4); assay type: physicochemical; details: pH = 7.4, ^177Lu-labeled
Method: Approximately 1 MBq of the labeled tracer was dissolved in 1 mL of a 1/1 mixture (v/v) of phosphate buffered saline (PBS, pH = 7.4) and n-octanol in an Eppendorf tube (1.5 mL). After vigorous mixing of the suspension for 3 min at rt, the vial was centrifuged at 9,000 rpm for 5 min (Biofuge 15, Heraeus Sepatech, Osterode, Germany) and 200 µL aliquots of both layers were measured in a γ-counter. The experiment was repeated at least five times.

[4] = Biodistribution in AR4-2J tumor-bearing CB17-SCID mice; assay type: in vivo; details: female, CB17-SCID, mouse, in vivo, iv, 100 pmol, total radioactivity, 100 pmol; for tissue uptake at 1 h: 1 h p.i.; for tissue uptake at 2 h: 2 h p.i.; for tissue uptake at 4 h: 4 h p.i.
Method: All animal experiments were conducted in accordance with general animal welfare regulations in Germany (German animal protection act, in the edition of the announcement, dated May 18th, 2006, as amended by Article 280 of June 19th 2020, approval no. ROB-55.2-1-2532.Vet_02-18-109 by the General Administration of Upper Bavaria) and the institutional guidelines for the care and use of animals. CB17-SCID mice of both genders (Charles River Laboratories International Inc., Sulzfeld, Germany) were let to acclimate at the in-house animal facility at least for one week before inoculation was performed. To establish tumor xenografts, AR4-2J cells (5.0 × 10^6 cells per 200 µL) were suspended in a 1/1 mixture (v/v) of Dulbecco modified Eagle medium / Nutrition Mixture F-12 with Glutamax-I (1/1) and Cultrex® Basement Membrane Matrix Type 3 (Trevigen, Gaithersburg, MD, USA) and inoculated subcutaneously onto the right shoulder of 6-10 weeks old CB17-SCID mice (Charles River, Sulzfeld, Germany). Mice were used for experiments when tumors had grown to a volume of 150-300 mm^3 (1-2 weeks after inoculation). Exclusion criteria for animals from an experiment were either a weight loss higher than 20%, a tumor size above 1,500 mm^3, an ulceration of the tumor, a respiratory distress or a change of behavior. None of these criteria applied to any animal from the experiment. Neither randomization nor blinding was applied in the allocation of the experiments. Health status is SPF according to FELASA.
Approximately 1-5 MBq (100 pmol) of the radiolabeled minigastrin analogues were injected into the tail vein of AR4-2J tumor-bearing female CB17-SCID mice and sacrificed at 1 to 24 h post injection (n = 4-5). Selected organs were removed, weighted and measured in a γ-counter.

CCK-2R [5] = experiment: Competition studies in AR4-2J tumor-bearing CB17-SCID mice; assay type: in vivo; details: co-administration of excess unlabeled competitor (40 nmol), 24 h p.i.
Method: For competition studies, the radiolabeled compound (approx. 1-5 MBq, 100 pmol) was co-injected with [^natLu]Lu-DOTA-MGS5 (40 nmol) into the tail vein of AR4-2J tumor-bearing CB17-SCID mice and sacrificed at 1 to 24 h post injection (n = 2). Selected organs were removed, weighted and measured in a γ-counter.

[6] = read-out: activity levels in the blood
[7] = read-out: activity levels in the tumor

SMILES: CCCC[C@@H](C(=O)N[C@@H](CC(=O)O)C(=O)N[C@@H](Cc1cccc2ccccc12)C(N)=O)N(C)C(=O)[C@H](Cc1c[nH]c2ccccc12)NC(=O)CCOCCOCCOCCOCCNC(=O)CC[C@@H](NC(=O)[C@@H]1C[C@@H](O)CN1C(=O)[C@@H]1C[C@@H](O)CN1C(=O)[C@@H]1C[C@@H](O)CN1C(=O)[C@@H]1C[C@@H](O)CN1C(=O)[C@@H]1C[C@@H](O)CN1C(=O)[C@@H]1C[C@@H](O)CN1C(=O)CC[C@@H](NC(=O)[C@@H](CNC(=O)c1ccc([Si](F)(C(C)(C)C)C(C)(C)C)cc1)NC(=O)CN1CCN(CC(=O)O)CCN(CC(=O)O)CCN(CC(=O)O)CC1)C(=O)O)C(=O)O [DOTA-rhCCK-84, DOTA-dap(SiFA)-γ-glu-(Hyp)6-γ-glu-(PEG)3-Trp-(N-Me)Nle-Asp-1-Nal-NH2] ({DOTA}-[dDap](Benzoyl(4-SiFtBu2))[d(γGlu)][Hyp][Hyp][Hyp][Hyp][Hyp][Hyp][d(γGlu)][PEG4]W[NMeNle]D[1Nal]-NH2)
- in vivo stability in the serum (intact compound) ([1]; murine serum): 93.5 ± 2.1%
- in vivo stability in the urine (intact compound) ([1]; murine urine): 55.4 ± 9.0%
- IC50 (CCK-2R [2]; read-out: IC50 [nM] (n = 3), ^natGa-labeled, ^natGa-labeled): 27.7 ± 3.1 nM
- IC50 (CCK-2R [2]; read-out: IC50 [nM] (n = 3), ^natLu-labeled, ^natLu-labeled): 7.87 ± 0.3 nM
- logD7.4 (n ≥ 5), ^177Lu-labeled [3]: -2.14 ± 0.06
- logD7.4 (n ≥ 5), ^177Lu-labeled ([3]; listed as [^nat/177Lu]Lu-DOTA-rhCCK-84): -2.14 ± 0.06
- tissue uptake at 1 h [4, 6]: 11.3 ± 1.3 %ID/g
- tissue uptake at 1 h ([4]; read-out: tumor uptake): 36.3 ± 3.7 %ID/g
- tissue uptake at 2 h [4, 6]: 3.71 ± 0.46 %ID/g
- tissue uptake at 2 h [4, 7]: 35 ± 2.9 %ID/g
- tissue uptake at 4 h [4, 6]: 1.14 ± 0.18 %ID/g
- tissue uptake at 4 h [4, 7]: 34 ± 3.6 %ID/g
- tissue uptake at 24 h ([4]; 24 h p.i., read-out: activity levels in the kidneys): < 10 %ID/g
- activity levels in stomach and tumor in competition studies (CCK-2R specificity) (CCK-2R [5]): significantly decreased activity levels in both stomach and tumor
